Measurements published in article PMC13190736.

What was measured:
[1] = target: staphylococcal enterotoxin C (SEC-2), wild type (Staphylococcus aureus) (UniProt P34071); assay: ELISA
[2] = target: staphylococcal enterotoxin C (SEC-2), wild type (Staphylococcus aureus) (UniProt P34071); assay: SPR

B1: Nb C107 (VHH)
VHH: QVQLVESGGGLVQPGGSLRLSCAPSGSTSGIYASGWYRQVPGKPQEWLADISRGGSTKYADSVKGRFTISRDNAKNTVYLQMNSLKPEDTATYYCRVIDTLGAEYRGQGTQVTVSS
For B1, which EC50 [1] is on record?
Its EC50 is 2.5 nM.

B2: Nb C112 (VHH)
VHH: QVQLVESGGGLVQAGGSLRLSCTASERMYGIEMGWFRQAPGKERELVAAITWSGVVSHLQESVKGRFTISRDNPKKTVYLQMNSLKPEDTATYYCAGHRLQWASGYTRHDYGSWGQGTQVTVSS
With B2 as the binder, how does the Kd [2] read?
Its Kd is 0.179 nM.
